This is an account of results in PMC10645074, “Insulin receptor Arg717 and IGF-1 receptor Arg704 play a key role in ligand binding and in receptor activation” (Open Biology, 2023).

The target in this assay is T1, 125I-TyrA14 human insulin (human, 125I on TyrA14 (specific activity 2200 Ci/mmol)).
T1 construct: insulin A chain, human, cut product of proinsulin; insulin B chain, human, cut product of proinsulin; also called ^125I-HI; HI
In words: radioligand binding; saturation binding of the 125I-labelled ligand (0.05-5 nM) to isolated ectodomain-mCherry (300 ng/well) immobilised through its HisTag on 96-well plates by nickel-NTA iBodies with biotin on neutravidin; otherwise as the whole-cell assay; one-site specific binding fit. As to conditions: both partners purified.

B1: isolated ecto-IR-A Arg717Gln conjugated with mCherry (domain or fragment)
chain 1: HLYPGEVCPGMDIRNNLTRLHELENCSVIEGHLQILLMFKTRPEDFRDLSFPKLIMITDYLLLFRVYGLESLKDLFPNLTVIRGSRLFFNYALVIFEMVHLKELGLYNLMNITRGSVRIEKNNELCYLATIDWSRILDSVEDNYIVLNKDDNEECGDICPGTAKGKTNCPATVINGQFVERCWTHSHCQKVCPTICKSHGCTAEGLCCHSECLGNCSQPDDPTKCVACRNFYLDGRCVETCPPPYYHFQDWRCVNFSFCQDLHHKCKNSRRQGCHQYVIHNNKCIPECPSGYTMNSSNLLCTPCLGPCPKVCHLLEGEKTIDSVTSAQELRGCTVINGSLIINIRGGNNLAAELEANLGLIEEISGYLKIRRSYALVSLSFFRKLRLIRGETLEIGNYSFYALDNQNLRQLWDWSKHNLTITQGKLFFHYNPKLCLSEIHKMEEVSGTKGRQERNDIALKTNGDQASCENELLKFSYIRTSFDKILLRWEPYWPPDFRDLLGFMLFYKEAPYQNVTEFDGQDACGSNSWTVVDIDPPLRSNDPKSQNHPGWLMRGLKPWTQYAIFVKTLVTFSDERRTYGAKSDIIYVQTDATNPSVPLDPISVSNSSSQIILKWKPPSDPNGNITHYLVFWERQAEDSELFELDYCLKGLKLPSRTWSPPFESEDSQKHNQSEYEDSAGECCSCPKTDSQILKELEESSFRKTFEDYLHNVVFVPQPS
chain 2: SLGDVGNVTVAVPTVAAFPNTSSTSVPTSPEEHRPFEKVVNKESLVISGLRHFTGYRIELQACNQDTPEERCSVAAYVSARTMPEAKADDIVGPVTHEIFENNVVHLMWQEPKEPNGLIVLYEVSYRRYGDEELHLCVSRKHFALERGCRLRGLSPGNYSVRIRATSLAGNGSWTEPTYFYVTDYLDVPSNIAK
In turn, B1 yielded a Kd of 0.27 nM.
